Tests used:
[1] = target: T1, GPIIb/IIIa (integrin αIIbβ3) (Homo sapiens, UniProt P05106+P08514); assay: ADP-induced platelet aggregation inhibition assay in platelet-rich plasma; assay type: cell-based; conditions: inhibitor added one minute prior to ADP (1 μM)
T1 construct: endogenous in cells; host or cells: platelets in fresh platelet-rich plasma
Description: Different concentrations of native CN, Vicrostatin (VN), or rCN conformer were incubated with platelet-rich plasma. Addition of ADP induces platelet aggregation; VN, rCN conformer, or native CN were added one minute prior to ADP.
The recombinant CN products were evaluated for biological activity by a platelet aggregation inhibition assay. According to this assay, CN binding to GPIIb/IIIa (integrin αIIbβ3) in an RGD dependent manner inhibits ADP induced platelet aggregation (Trikha, Rote et al. 1994). In this assay, potential inhibitors are added to fresh platelet-rich plasma, and after minute, ADP is added to a final concentration of 1 μM to induce aggregation. If inhibitor is present, functional aggregation will not occur. The IC50 is defined as the concentration at which 50% of the activity is inhibited, and is used as a measure of the potency of an inhibitor.

[2] = Liposome encapsulation, size and stability (BCA protein assay after liposome disruption); assay type: physicochemical
Description: Endotoxin-free VN containing liposomes (referred to as LVN) and endotoxin-free native CN containing liposomes (referred to as LCN) were prepared utilizing a probe sonication previously described (Fujii, Chang et al. 1997). Briefly, the lipids (disteroylphosphatidylcholine, cholesterol and polyethylene glycol derivatized lipid) were dissolved in a chloroform/methanol solution. Thin lipid films were created by pipetting aliquots of the lipid solution into round bottom glass tubes followed by solvent evaporation at 65° C. under a stream of nitrogen gas. The films were placed under vacuum for at least 24 hours to remove residual organic solvent. Liposomes formed following hydration of the lipid films with native CN or VN dissolved in 10 mM sodium phosphate, 9% sucrose, pH 7.2. The mixture was incubated at 65° C. for 5-10 minutes. Hydration was followed by probe sonication until the suspension was translucent. […]
The concentration of liposome entrapped CN/VN was determined by disruption of the liposomes with chloroform/methanol/water (10:40:50) followed by centrifugation at 14,000×g. The supernatant was analyzed for CN/VN concentration using BCA protein assay (Smith, Krohn et al. 1985). The encapsulation efficiency was assessed by BCA protein determination following disruption of the LrCN with a solution of H2O:methanol:chloroform.

[3] = test system: MDA-MB-435 breast carcinoma cells; assay: Inhibition of MDA-MB-435 cell adhesion to immobilized fibronectin (MTS readout); assay type: cell-based, human; conditions: 0-1000 nM, 30 min pretreatment, adhesion 1 hr at 25° C.
Description: (§1) Pretreated cells were allowed to adhere for 1 hr at 25° C., and after non-adherent cells were washed away, the number of adherent cells for each condition was estimated using the MTS cell viability assay.
(§2) Pretreated cells were allowed to adhere for 1 hr at 25° C., and after non-adherent cells were washed away, the number of adherent cells for each condition was estimated using the MTS cell viability assay. In the cell invasion assay, an invasion chamber consisting of cell culture inserts that fit into 24-well tissue culture plate has been utilized. The inserts contain an 8 μm-pore size polycarbonate membrane, over which a thin layer of ECMatrix™ was applied. The ECMatrix™ serves as an in vitro reconstituted basement membrane and is a solid gel of ECM proteins prepared from the Engelbreth Holm-Swarm (EHS) mouse tumor. The ECM layer occludes the membranes pores, blocking non-invasive cells to migrate through. […] At the 8 hr time point the cells that invaded through the pores into the lower chamber were measured. The numbers of invaded cells for each condition were approximated by quantitating the retrieved labeled DNA using a fluorescent plate reader. The results were calculated in % invasion, where the untreated control was considered as 100% invasion.

[4] = test system: MDA-MB-435 breast carcinoma cells; assay: Inhibition of MDA-MB-435 cell adhesion to immobilized vitronectin (MTS readout); assay type: cell-based, human; conditions: 0-1000 nM, 30 min pretreatment, adhesion 1 hr at 25° C.
Description: as §1, §2

B1: contortrostatin (protein)
chain: DAPANPCCDAATCKLTTGSQCADGLCCDQCKFMKEGTVCRRARGDDLDDYCNGISAGCPRNPFH
- IC50 [1]: ~60 nM
- protein in the encapsulation solution entrapped within the liposomes [2]: 80%
- inhibition of MDA-MB-435 cell adhesion to immobilized fibronectin (Fn) [3]: inhibited adhesion
- inhibition of MDA-MB-435 cell adhesion to immobilized vitronectin (Vn) [4]: inhibited adhesion

From patent US8685668B2, “Method of expressing proteins with disulfide bridges” (University of Southern California, priority 2005, dated 2014)
